Target: VNp-mNeongreen-TEV-etanercept-His6 fusion protein (human)
Assay: SDS-PAGE without reducing agent and anti-mNeongreen western blot; VNp-mNG-etanercept purified from E. coli, without DTT

- stoichiometry N: 2
Substance: VNp-mNeongreen-TEV-etanercept-His6 fusion protein (Fc fusion)

— PMC10014274
